Results taken from patent US20130217572A1, “SPECIFIC DELIVERY OF AGROCHEMICALS” (VRIJE UNIVERSITEIT BRUSSEL, priority 2010, published 2013).

B1: VHH 3E6 (VHH)
VHH: QVQLQESGGGLVQPGGTLSLSCAASGFNVRWYGMGWFRQAPGKEREGVACISALQETTAYADSVKGRFTLSRDNPKNTLSLQMNNLQPEDTGVYYCATTDCDDSSRMTYTSYLGQGTQVTVSS
notes: also called Monovalent VHH 3E6

Assays:
potato lectin (Sigma) [1] = biological target: T1, potato lectin (Sigma) (potato, UniProt Q9S8M0 23-323); test: microcapsule retention; G: amine capsules, BS3 one-step, 1 ug VHH/cm2; potato lectin coat 1 ug/ml; 10% coverage
T1 construct: Bought glycoprotein, coated on ELISA plates
T1 sequence (looked up): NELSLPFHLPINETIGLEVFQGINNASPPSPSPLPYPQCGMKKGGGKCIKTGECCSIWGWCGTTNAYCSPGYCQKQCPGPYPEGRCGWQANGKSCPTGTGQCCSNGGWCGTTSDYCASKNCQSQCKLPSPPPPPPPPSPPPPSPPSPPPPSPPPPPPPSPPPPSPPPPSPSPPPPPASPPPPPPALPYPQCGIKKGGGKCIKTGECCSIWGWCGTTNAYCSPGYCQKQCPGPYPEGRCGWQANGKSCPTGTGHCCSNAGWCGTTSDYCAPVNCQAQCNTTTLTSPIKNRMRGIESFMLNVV

potato lectin (Sigma) [2] = biological target: T1, potato lectin (Sigma); test: microcapsule retention; H: amine capsules, BS3 one-step, 0.1 ug VHH/cm2; potato lectin coat 10 ug/ml; 10% coverage
potato lectin (Sigma) [3] = biological target: T1, potato lectin (Sigma); test: microcapsule retention; C: carboxyl capsules, EDC/Sulfo-NHS, 1 ug VHH/cm2; potato lectin coat 10 ug/ml; 10% coverage
potato lectin (Sigma) [4] = biological target: T1, potato lectin (Sigma); test: microcapsule retention; H: amine capsules, BS3 one-step, 0.1 ug VHH/cm2; potato lectin coat 10 ug/ml; 100% coverage
potato lectin (Sigma) [5] = biological target: T1, potato lectin (Sigma); test: microcapsule retention; C: carboxyl capsules, EDC/Sulfo-NHS, 1 ug VHH/cm2; potato lectin coat 1 ug/ml; 100% coverage
potato lectin (Sigma) [6] = biological target: T1, potato lectin (Sigma); test: microcapsule retention; L: amine capsules, BS3 two-step, 0.1 ug VHH/cm2; potato lectin coat 100 ug/ml; 10% coverage
potato lectin (Sigma) [7] = biological target: T1, potato lectin (Sigma); test: microcapsule retention; K: amine capsules, BS3 two-step, 1 ug VHH/cm2; potato lectin coat 100 ug/ml; 100% coverage
potato lectin (Sigma) [8] = biological target: T1, potato lectin (Sigma); test: microcapsule retention; H: amine capsules, BS3 one-step, 0.1 ug VHH/cm2; potato lectin coat 100 ug/ml; 100% coverage
potato lectin (Sigma) [9] = biological target: T1, potato lectin (Sigma); test: microcapsule retention; K: amine capsules, BS3 two-step, 1 ug VHH/cm2; potato lectin coat 10 ug/ml; 100% coverage
unrelated antigens [10] = test: VHH-coupled Uvitex microcapsules retained on wells coated with unrelated antigen; 20% surface coverage
potato lectin = biological target: T2, potato lectin (Solanum tuberosum, UniProt Q9S8M0); test: VHH binding to potato lectin in ELISA; conditions: blank wells; VHH 3 μg/ml
T2 sequence (Q9S8M0 23-323): T1 sequence (looked up)
Method: (§1) ELISA plates (Maxisorp, Nunc) coated with 100 μl per well 100 μg/ml potato lectin (Sigma) in PBS were coated at 4° C. overnight and coating was continued at room temperature for 1 hour on the next day. Plates were washed three times with PBS/0.05%-TWEEN®-20 and blocked with 5% skimmed milk in PBS for 1 hour. VHH (3 μg/ml) were transferred to the potato lectin-coated plates and VHH antibody fragments were allowed to bind for 1 hour at room temperature. Bound VHH were detected with sequential incubations with monoclonal mouse anti-histidine antibodies (Abd Serotec) and rabbit anti-mouse IgG whole molecule antibodies conjugated with alkaline phosphatase (RaM/AP) (Sigma) in 1% MPBS/0.05%-TWEEN®-20. Unbound antibodies were removed by washing three times with PBS/0.05%-TWEEN®-20 after each antibody incubation. The plates were washed an additional two times with PBS and 100 μl pNPP disodium hexahydrate substrate (Sigma) was added to each well and the absorbance at 405 nm was measured (see Table 2).

[11] = system: intact living potato pot plants; test: VHH binding to intact living plants; parameters: species or system potato (variety Désirée); conditions: leaves attached to potato pot plant submerged in VHH solution in PBS, 1 hour
Method: Binding of VHH to intact living plants was investigated on potato pot plants (variety Désirée). Compound leaves of intact living plants were submersed in solutions of hexahistidine-tagged VHH in PBS, or PBS alone for control conditions, leaving the compound leaves attached to the plants. VHH were allowed to bind for 1 hour. Next, the compound leaves still attached to the plants were washed five times in PBS in Erlenmeyer flasks. Different leaves and petiole sections were sampled. Bound VHH were detected by incubation with monoclonal mouse anti-histidine antibodies directly conjugated with Alexa-488 fluorescent dye (Abd Serotec) in PBS for 1 hour. Unbound anti-histidine antibodies were removed by washing five times with PBS. Whole leaves, leaf discs, or petiole sections were analyzed for bound VHH with microscopy.

potato leaf surface = test: VHH binding to leaf discs (microscopy); parameters: species or system potato (variety Désirée); conditions: 5 μg/ml in PBS, anti-histidine Alexa-488 detection
Method: (§2) VHH binding to non-fixed leaf discs of potato (variety Désirée), black nightshade, grass, wheat or azalea was investigated. For comparison, binding of CBM3a to non-fixed leaf discs of potato (variety Désirée) was analyzed in parallel. Leaf discs were prepared by punching a fresh potato leaf with a 5 mm belt hole puncher tool. Leaf discs were put immediately in wells of a 96-well plate containing 200 μl per well 5% MPBS or PBS, and incubated for 30 minutes. Leaf discs were transferred to solutions containing 5 μg/ml VHH antibody fragment, respectively 5 μg/ml CBM3a in 2% MPBS or PBS and incubated for 60-90 minutes. Unbound VHH or CBM3a proteins were removed by washing three times with 2% MPBS or PBS. Bound VHH or CBM3a proteins were detected with incubation with monoclonal mouse anti-histidine antibodies directly conjugated with Alexa-488 fluorescent dye (Abd Serotec) in 1% MPBS for 1 hour. Unbound antibodies were removed by washing three times with PBS. Leaf discs were put on glass slides, covered with cover slips, and analyzed by microscopy or on a macrozoom microscope system (Nikon) or a SP5 confocal microscope system (Leica).

unrelated antigens [12] = test: VHH-coupled lambda-cyhalothrin microcapsules retained on wells coated with unrelated antigen; 100% surface coverage
grass leaf surface = test: VHH binding to leaf discs (microscopy); conditions: 5 μg/ml in PBS, anti-histidine Alexa-488 detection
Method: as §2

[13] = system: black nightshade leaf surface; test: VHH binding to leaf discs (microscopy); conditions: 5 μg/ml in PBS, anti-histidine Alexa-488 detection
Method: as §2

potato lectin (Sigma) [14] = biological target: T1, potato lectin (Sigma); test: ELISA, potato lectin coated at 100 ug/ml, VHH at 3 ug/ml, anti-histidine detection
Method: as §1

Molecule | microcapsule counts (microcapsules) (potato lectin (Sigma) [1]) | microcapsule counts (microcapsules) (potato lectin (Sigma) [2]) | microcapsule counts (microcapsules) (potato lectin (Sigma) [3]) | microcapsule counts (microcapsules) (potato lectin (Sigma) [4]) | microcapsule counts (microcapsules) (potato lectin (Sigma) [5]) | microcapsule counts (microcapsules) (potato lectin (Sigma) [6]) | microcapsule counts (microcapsules) (potato lectin (Sigma) [7]) | microcapsule counts (microcapsules) (potato lectin (Sigma) [8]) | microcapsule counts (microcapsules) (potato lectin (Sigma) [9]) | surface area of bound microcapsules (unrelated antigens [10]) | absorbance at 405 nm (potato lectin) | binding to an intact living plant [11] | binding to native potato leaf surface (potato leaf surface) | binding to native potato leaf surface (potato leaf surface; listed as 3E6) | counts of bound microcapsules (microcapsules) (unrelated antigens [12]) | binding to native grass leaf surface (grass leaf surface) | binding to native grass leaf surface (grass leaf surface; listed as 3E6) | binding to native black nightshade leaf surface [13] | binding to native black nightshade leaf surface ([13]; listed as 3E6) | absorbance at 405 nm (potato lectin (Sigma) [14])
Control VHH | 7 | 215 | 50 | 780 | 193 | 248 | 866 | 622 | 903 |  |  |  |  |  |  |  |  |  |  | 
B1 |  |  |  |  |  |  |  |  |  | 27.7 | 0.067 | binding leaf surface, stomata, glandular trichomes, and leaf hairs | binding leaf surface, stomata, glandular trichomes, and leaf hairs | clearly binding to trichomes, stomata and cuticle | 861 | binding to leaf surface and wounded plant tissue | bind specifically | binding leaf surface, glandular trichomes, and leaf hairs | bind specifically | 4
